Consider one molecule from patent publication US20220242973A1 (Molecular Partners, published 2022).

As a reminder, the EC50 (read off the curve) is the concentration at which the effect is half-maximal. A lower EC50 (read off the curve) goes with higher potency in that assay. In general, Kd refers to a measure of binding affinity in units of concentration.

For assay [1], the target named is T1, Human FAP expressed on the cell surface (WI38, CHO-FAP1.9, U87MG cells) (human, UniProt Q12884 1-760).
T1 construct: whole, on cells; Endogenous on WI38 and U87MG cells; from a human FAP cDNA (OriGene) in CHO-FAP1.9 cells; also called hFAP; FAP+ cells
T1 sequence (looked up): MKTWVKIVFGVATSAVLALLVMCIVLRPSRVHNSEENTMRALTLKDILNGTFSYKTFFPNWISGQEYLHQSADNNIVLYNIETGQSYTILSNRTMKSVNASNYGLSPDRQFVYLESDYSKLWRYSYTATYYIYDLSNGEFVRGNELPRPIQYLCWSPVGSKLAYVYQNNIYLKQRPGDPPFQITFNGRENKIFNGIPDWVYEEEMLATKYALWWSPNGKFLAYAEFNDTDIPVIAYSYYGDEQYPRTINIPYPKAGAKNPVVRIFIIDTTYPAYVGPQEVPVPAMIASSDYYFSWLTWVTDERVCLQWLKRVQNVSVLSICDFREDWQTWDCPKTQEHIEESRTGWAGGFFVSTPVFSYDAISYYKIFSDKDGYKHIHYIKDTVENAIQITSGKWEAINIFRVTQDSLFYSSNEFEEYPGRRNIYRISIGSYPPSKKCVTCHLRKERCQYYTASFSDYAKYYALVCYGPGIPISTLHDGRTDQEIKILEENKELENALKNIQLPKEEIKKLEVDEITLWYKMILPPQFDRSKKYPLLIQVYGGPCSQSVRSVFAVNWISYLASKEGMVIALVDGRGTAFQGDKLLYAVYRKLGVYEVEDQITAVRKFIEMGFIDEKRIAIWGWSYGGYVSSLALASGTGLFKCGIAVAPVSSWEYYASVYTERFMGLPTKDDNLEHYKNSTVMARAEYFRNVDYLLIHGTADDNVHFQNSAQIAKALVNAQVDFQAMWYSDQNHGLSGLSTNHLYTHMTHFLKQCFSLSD
Briefly: FACS on WI38 cells (FAP on the cell surface), His-tag detected with Penta-His AF647 conjugate, median fluorescence intensity. On the procedure:
In order to determine whether the fusion of a biologically active molecule to a FAP-specific ankyrin repeat domain affects the ability of the molecule to specifically recognize and bind to FAP expressed on the surface of cells, the binding of selected ankyrin repeat fusion proteins to FAP-expressing cells was tested. U87 MG cells and WI38 cells are known to express FAP on the cell surface and they were chosen as representative cells for these experiments. FAP expression on the U87 MG and WI38 cells was confirmed by FACS analysis (data not shown).
Using multi-well plates, 40,000 cells (either U87MG or WI38) were added per well in 50 μl of PBS. 50 μl of appropriate dilutions (2× dilution steps) of ankyrin repeat fusion protein (DARPin® protein #40 or DARPin® protein #41) was then added to the cells and incubated for 30 minutes on ice. After the ankyrin repeat fusion protein-binding reaction, cells were washed twice with PBS. Direct immunofluorescent detection of the His-tagged ankyrin repeat fusion proteins using Penta-His AF647 conjugate (QIAgen) and determination of live cells using LIVE/DEAD™ Fixable Green Dead Cell Stain Kit (ThermoFisher) were then performed together in one step. […] Acquisition and FACS analysis, including the determination of median fluorescence intensity (MFI), were done within 5 days after staining using an AttuneNxT instrument. […]

For a further assay, the target named is T2, Recombinant mouse FAP (mouse, UniProt P97321 26-761).
T2 construct: Bought soluble recombinant protein; also called mFAP
T2 sequence (looked up): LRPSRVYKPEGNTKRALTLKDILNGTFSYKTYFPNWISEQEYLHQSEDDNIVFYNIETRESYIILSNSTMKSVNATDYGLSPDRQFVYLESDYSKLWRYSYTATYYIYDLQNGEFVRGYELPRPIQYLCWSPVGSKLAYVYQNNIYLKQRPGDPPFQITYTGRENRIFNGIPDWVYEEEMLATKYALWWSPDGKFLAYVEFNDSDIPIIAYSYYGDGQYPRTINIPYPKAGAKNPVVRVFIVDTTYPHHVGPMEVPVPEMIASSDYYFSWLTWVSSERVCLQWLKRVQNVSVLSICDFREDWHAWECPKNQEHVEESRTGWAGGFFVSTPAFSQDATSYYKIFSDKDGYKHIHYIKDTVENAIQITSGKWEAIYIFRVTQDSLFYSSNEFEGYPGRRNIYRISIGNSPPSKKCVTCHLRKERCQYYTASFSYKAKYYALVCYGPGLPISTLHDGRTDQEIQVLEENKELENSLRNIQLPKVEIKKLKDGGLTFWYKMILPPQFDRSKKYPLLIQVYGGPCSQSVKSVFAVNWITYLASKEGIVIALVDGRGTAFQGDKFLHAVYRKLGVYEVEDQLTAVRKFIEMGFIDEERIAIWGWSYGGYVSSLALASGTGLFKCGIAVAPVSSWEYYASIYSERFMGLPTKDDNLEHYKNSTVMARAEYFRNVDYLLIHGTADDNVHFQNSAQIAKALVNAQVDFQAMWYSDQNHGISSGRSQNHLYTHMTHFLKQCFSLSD
Briefly: SPR (ProteOn), mouse FAP immobilized on GLC chip. On the procedure:
Briefly, mouse FAP was diluted in 10 mM Na-acetate pH5.3 buffer and covalently immobilized on a GLC chip (BioRad) to a level of around 2000 resonance units (RU). The interaction of DARPin® protein #41 and mFAP was then measured by injecting 200 μl running buffer (PBS, pH7.4 containing 0.005% Tween20®) containing serial dilutions of DARPin® protein #41 covering a concentration range between 50 nM and 3 nM (on-rate measurement), followed by a running buffer flow for 30 minutes at a constant flow rate of 100 μl/min (off-rate measurement). The regeneration was performed using 15 μl of 10 mM Glycine pH 2 followed by 15 μl of 124 mM H₃PO₄. The signals (i.e. resonance unit (RU) values) of the interspots and a reference injection (i.e. injection of running buffer only) were subtracted from the RU traces obtained after injection of DARPin® protein #41 (double-referencing). The binding of DARPin® protein #41 to hFAP was determined as described in Example 2.
Dissociation constants (KD) were calculated from the estimated on- and off-rates using standard procedures known to the person skilled in the art and are reported in Table 7. […] The dissociation constant of DARPin® protein #41 for binding to mouse FAP was determined to be 1.3 nM.

B1: DARPin® protein #41 (designed binder)
chain: MRGSHHHHHHGSDLGKKLLEAARAGQDDEVRELLKAGADVNAKDYFSHTPLHLAARNGHLKIVEVLLKAGADVNAKDFAGKTPLHLAANEGHLEIVEVLLKAGADVNAQDIFGKTPADIAADAGHEDIAEVLQKAAGSPTPTPTTPTPTPTTPTPTPTGSDLGEKLLVAALYGQDDEVRILLAAGADVNAKDQWGLTPLHKAALQGHLEIVEVLLKAGADVNAKDERGHTPLHWAARFGHLEIVEVLLKAGADVNAQDQKGYTPADLAALWGHEDIAEVLQKAA
notes: Fusion of a serum albumin-specific and a FAP-specific ankyrin repeat domain
For the molecule B1, the “EC50 (read off the curve)” value in assay [1] was ~2 nM. Also, in the assay with Recombinant mouse FAP, the Kd was found to be 1.3 nM.
